Experimental data taken from US20240010721A1.
Several values for one entry are separate records, joined by “and”; a condition that tells them apart may be missing. Equal values may be shown once.

What was measured:
[1] = molecular target: cynomolgus ROR1 (cynoROR1) on CHO-K1 cells (cynomolgus); experiment: FACS, CHO-K1-cynoROR1 cells; isotype control
[2] = molecular target: human ROR1 (hROR1) on cells (human) (UniProt Q01973); experiment: FACS, A549 cells; isotype control
hROR2ECD-his (human) = hROR2ECD-his (human) (UniProt Q01974); experiment: ELISA, plate coated with hROR2 ECD-his; isotype control
Sequence of hROR2ECD-his (human) (Q01974 34-403): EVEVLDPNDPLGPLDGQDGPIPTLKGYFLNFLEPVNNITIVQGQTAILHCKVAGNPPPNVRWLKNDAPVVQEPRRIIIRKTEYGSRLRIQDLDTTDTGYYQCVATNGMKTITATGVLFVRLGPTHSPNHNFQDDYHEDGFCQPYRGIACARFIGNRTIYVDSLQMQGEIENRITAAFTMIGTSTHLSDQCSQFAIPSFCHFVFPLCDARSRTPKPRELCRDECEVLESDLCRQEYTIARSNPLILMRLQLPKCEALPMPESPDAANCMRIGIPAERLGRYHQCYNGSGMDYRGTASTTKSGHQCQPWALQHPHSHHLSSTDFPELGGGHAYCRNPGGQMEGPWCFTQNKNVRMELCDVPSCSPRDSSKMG

[3] = molecular target: human ROR1 (hROR1) on cells (human) (UniProt Q01973); experiment: cell-based or functional assay
[4] = molecular target: Human ROR1-ECD-his (human) (UniProt Q01973); experiment: ELISA, plate coated with hROR1 ECD-his; isotype control
Sequence of Human ROR1-ECD-his (human) (Q01973 30-406): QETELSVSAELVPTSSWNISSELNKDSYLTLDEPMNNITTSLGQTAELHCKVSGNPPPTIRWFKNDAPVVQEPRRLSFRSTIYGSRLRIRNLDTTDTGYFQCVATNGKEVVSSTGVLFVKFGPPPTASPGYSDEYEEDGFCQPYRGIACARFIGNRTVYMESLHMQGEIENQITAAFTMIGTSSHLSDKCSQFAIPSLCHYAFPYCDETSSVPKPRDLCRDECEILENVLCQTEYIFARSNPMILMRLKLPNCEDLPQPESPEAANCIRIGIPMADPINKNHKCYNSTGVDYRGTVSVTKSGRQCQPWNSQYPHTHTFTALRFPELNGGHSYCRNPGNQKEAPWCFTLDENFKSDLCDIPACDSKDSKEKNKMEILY

[5] = molecular target: human ROR1 (hROR1) on cells (human) (UniProt Q01973); experiment: FACS, HEK293T-hROR1 cells; isotype control

Sequence of human ROR1 (hROR1) on cells (human) (Q01973 30-937): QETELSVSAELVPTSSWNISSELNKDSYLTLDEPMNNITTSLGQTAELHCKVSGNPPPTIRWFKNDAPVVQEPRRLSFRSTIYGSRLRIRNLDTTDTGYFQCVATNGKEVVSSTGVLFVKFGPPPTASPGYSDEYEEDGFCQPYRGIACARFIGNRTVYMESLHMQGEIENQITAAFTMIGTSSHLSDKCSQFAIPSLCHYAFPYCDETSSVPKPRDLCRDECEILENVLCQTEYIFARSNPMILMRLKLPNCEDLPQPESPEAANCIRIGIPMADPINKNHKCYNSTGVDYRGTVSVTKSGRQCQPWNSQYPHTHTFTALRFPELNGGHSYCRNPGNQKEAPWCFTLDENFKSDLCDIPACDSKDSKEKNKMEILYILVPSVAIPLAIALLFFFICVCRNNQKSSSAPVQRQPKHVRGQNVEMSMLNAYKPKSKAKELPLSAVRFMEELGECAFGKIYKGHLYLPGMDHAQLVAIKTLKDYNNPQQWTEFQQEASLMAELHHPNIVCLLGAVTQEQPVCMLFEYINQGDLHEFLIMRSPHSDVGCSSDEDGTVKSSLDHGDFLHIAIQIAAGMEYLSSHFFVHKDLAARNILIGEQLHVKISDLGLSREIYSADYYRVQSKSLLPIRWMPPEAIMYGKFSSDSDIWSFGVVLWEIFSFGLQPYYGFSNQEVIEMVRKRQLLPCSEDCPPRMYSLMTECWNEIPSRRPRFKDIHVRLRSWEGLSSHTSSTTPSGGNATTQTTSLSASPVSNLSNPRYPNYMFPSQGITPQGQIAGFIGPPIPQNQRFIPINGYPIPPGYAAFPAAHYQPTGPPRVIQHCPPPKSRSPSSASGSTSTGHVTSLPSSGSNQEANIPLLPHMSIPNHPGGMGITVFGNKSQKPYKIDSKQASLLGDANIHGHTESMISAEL

Question: What does the source list for “human Iso IgG1 (CrownBio, Cat#: C0001-4) (antibody)”?
Answer: MAX(MFI) [1]: 140 MFI; MAX(MFI) [2]: 119 MFI; ELISA signal (called MFI) (hROR2ECD-his (human)): 0.041; ADCC Cytotoxicity (%), Donor 1, 1 nM (negative control) [3]: 9.89%; ADCC Cytotoxicity (%), Donor 1, 10 nM (negative control) [3]: 10.4%; ADCC Cytotoxicity (%), Donor 2, 1 nM (negative control) [3]: 10.8%; ADCC Cytotoxicity (%), Donor 2, 10 nM (negative control) [3]: 10.5%; ADCP, percentage of double-stained cells, 0.1 nM (control) [3]: 6.79% and 5.59%; ADCP, percentage of double-stained cells, 10 nM (control) [3]: 6.53% and 7.46%; ELISA signal (called MFI) [4]: 0.036; MAX(MFI) [5]: 226 MFI
